Data: patent US20230052369A1 (Zymeworks, published 2023)
Where a chain is given by its changes, count along the chain named. Values belong to the binder of their own block, whether it stands above or below them.

Tests used:
[1] = target: T1, purified human monomeric 4-1BB (human, UniProt Q07011 24-186); assay: SPR, mean n=3;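 note: antibodies captured on anti-human Fc chip, 4-1BB injected as five-point two-fold series from 40 nM by single-cycle kinetics at 25 °C, sensorgrams fitted to 1:1 Langmuir model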
T1 construct: the assay used the 4-1BB part released by Factor Xa with the Fc removed; also called h4-1BB; human 4-1BB
T1 sequence (Q07011 other isoform, or with tags, fused parts or gaps limits assumed): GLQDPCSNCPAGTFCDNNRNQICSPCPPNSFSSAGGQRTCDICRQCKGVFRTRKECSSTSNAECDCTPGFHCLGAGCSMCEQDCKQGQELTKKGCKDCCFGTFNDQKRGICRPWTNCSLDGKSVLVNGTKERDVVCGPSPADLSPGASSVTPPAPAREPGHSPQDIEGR

[2] = target: T2, 4-1BB human (human 4-1BB ECD-TEV-IgG1 hinge-CH2-CH3-10x His) (human); assay: ELISA, coated 4-1BB-Fc
T2 construct: 4-1BB residues 24-186 fused to TEV site, IgG1 Fc and His tag; the entry is the whole fusion; also called soluble human 4-1BB-Fc
T2 sequence (chain, as listed by the source limits assumed): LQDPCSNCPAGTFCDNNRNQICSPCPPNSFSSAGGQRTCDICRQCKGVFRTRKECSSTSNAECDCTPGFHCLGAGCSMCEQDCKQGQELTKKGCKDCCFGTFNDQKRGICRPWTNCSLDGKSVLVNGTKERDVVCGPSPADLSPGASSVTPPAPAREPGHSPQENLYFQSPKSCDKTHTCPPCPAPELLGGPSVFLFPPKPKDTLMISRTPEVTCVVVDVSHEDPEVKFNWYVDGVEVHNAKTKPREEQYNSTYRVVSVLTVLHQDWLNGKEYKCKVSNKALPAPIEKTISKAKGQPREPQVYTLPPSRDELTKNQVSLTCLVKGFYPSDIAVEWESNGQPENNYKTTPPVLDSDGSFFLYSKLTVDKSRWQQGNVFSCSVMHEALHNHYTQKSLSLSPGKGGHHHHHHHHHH

[3] = target: T3, 4-1BB dog (dog 4-1BB ECD-TEV-IgG1 Fc-10x His) (dog); assay: ELISA, coated 4-1BB-Fc
T3 construct: Uniprot E2R1R9 residues 24-186 fused to TEV site, IgG1 Fc and His tag
T3 sequence (chain, as listed by the source limits assumed): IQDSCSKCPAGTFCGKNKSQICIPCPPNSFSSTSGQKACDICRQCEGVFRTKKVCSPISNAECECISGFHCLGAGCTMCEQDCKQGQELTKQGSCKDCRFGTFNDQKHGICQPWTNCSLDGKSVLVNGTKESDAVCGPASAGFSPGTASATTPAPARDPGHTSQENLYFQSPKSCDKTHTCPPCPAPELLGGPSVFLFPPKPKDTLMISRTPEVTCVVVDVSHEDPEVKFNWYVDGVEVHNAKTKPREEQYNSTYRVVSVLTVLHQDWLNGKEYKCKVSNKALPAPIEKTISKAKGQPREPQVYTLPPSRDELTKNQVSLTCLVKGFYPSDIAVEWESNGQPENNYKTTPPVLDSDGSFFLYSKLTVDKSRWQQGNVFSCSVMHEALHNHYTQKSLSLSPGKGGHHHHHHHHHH

[4] = target: T4, human 4-1BB, full-length, expressed on cells (human, UniProt Q07011 24-255); assay: flow cytometry, Jurkat-4-1BB
T4 construct: also called CD137; TNFRSF9
T4 sequence (Q07011 24-255): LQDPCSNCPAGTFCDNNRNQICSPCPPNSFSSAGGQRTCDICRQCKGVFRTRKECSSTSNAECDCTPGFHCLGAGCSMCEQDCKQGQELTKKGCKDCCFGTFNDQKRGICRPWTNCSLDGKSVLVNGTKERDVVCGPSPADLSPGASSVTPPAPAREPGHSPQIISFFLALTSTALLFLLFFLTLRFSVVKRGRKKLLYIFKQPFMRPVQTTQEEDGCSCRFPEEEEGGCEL

[5] = target: T5, truncated human 4-1BB domain 3 and 4 only construct (residues 86-255), on cells (human, UniProt Q07011 86-255); assay: flow cytometry, transfected 293E6 cells
T5 construct: on 293E6 cells co-transfected with mouse 4-1BB; also called 4-1BB domain 3 and 4 only construct (amino acids 86-255)
T5 sequence (Q07011 86-255): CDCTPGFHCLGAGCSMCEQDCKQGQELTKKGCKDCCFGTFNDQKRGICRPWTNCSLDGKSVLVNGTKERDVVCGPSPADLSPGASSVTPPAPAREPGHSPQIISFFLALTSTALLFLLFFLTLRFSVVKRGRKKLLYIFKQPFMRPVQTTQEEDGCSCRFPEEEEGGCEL

[6] = target: T6, Cyno 4-1BB-Flag, on HEK293-6e cells (Cynomolgus (Macaca fascicularis)); assay: CellInsight cell binding, transfected HEK293-6e
T6 construct: also called Cynomolgus 4-1BB; CL#11070
T6 chain: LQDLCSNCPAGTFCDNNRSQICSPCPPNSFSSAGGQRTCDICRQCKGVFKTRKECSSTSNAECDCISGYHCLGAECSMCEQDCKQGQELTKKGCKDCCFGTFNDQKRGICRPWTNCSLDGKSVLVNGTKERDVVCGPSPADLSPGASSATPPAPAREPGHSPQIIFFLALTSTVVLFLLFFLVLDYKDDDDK

[7] = target: T7, Mouse 4-1BB-Flag, on HEK293-6e cells (Mouse (Mus musculus), UniProt P20334 24-208); assay: CellInsight cell binding, transfected HEK293-6e
T7 construct: also called CL#11063
T7 sequence (P20334 other isoform, or with tags, fused parts or gaps limits assumed): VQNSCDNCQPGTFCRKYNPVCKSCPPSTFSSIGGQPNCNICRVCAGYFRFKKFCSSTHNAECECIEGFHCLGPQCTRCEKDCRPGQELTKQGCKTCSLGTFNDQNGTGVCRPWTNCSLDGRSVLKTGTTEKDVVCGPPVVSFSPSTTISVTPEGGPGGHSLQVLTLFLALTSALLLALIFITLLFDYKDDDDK

[8] = target: T4, human 4-1BB, full-length, expressed on …; assay: cell-based or functional assay
[9] = target: T1, purified human monomeric 4-1BB; assay: SPR, Ab captured, monomeric 4-1BB injected

B2: v16675 (bispecific antibody, human IgG1, lambda, L234A L235A)
heavy 1: not shown
heavy 2: EVQLVQSGAEVKKPGESLRISCKGSGYSFSTYWISWVRQMPGKGLEWMGKIYPGDSYTNYSPSFQGQVTISADKSISTAYLQWSSLKASDTAMYYCARGYGIFDYWGQGTLVTVSSASTKGPSVFPLAPSSKSTSGGTAALGCLVKDYFPEPVTVSWNSGALTSGVHTFPAVLQSSGLYSLSSVVTVPSSSLGTQTYICNVNHKPSNTKVDKKVEPKSCDKTHTCPPCPAPELLGGPSVFLFPPKPKDTLMISRTPEVTCVVVDVSHEDPEVKFNWYVDGVEVHNAKTKPREEQYNSTYRVVSVLTVLHQDWLNGKEYKCKVSNKALPAPIEKTISKAKGQPREPQVYVYPPSRDELTKNQVSLTCLVKGFYPSDIAVEWESNGQPENNYKTTPPVLDSDGSFALVSKLTVDKSRWQQGNVFSCSVMHEALHNHYTQKSLSLSPG
light: SYELTQPPSVSVSPGQTASITCSGDNIGDQYAHWYQQKPGQSPVLVIYQDKNRPSGIPERFSGSNSGNTATLTISGTQAMDEADYYCATYTGFGSLAVFGGGTKLTVLGQPKAAPSVTLFPPSSEELQANKATLVCLISDFYPGAVTVAWKADSSPVKAGVETTTPSKQSNNKYAASSYLSLTPEQWKSHRSYSCQVTHEGSTVEKTVAPTECS
EC50 (pM), 4-1BB NF-kB-luciferase Jurkat reporter in co-culture with SKOV3 [8]: 56.9 pM | Max activity (RLU), 4-1BB NF-kB-luciferase Jurkat reporter [8]: 80900 RLU

B5: v16601 (bispecific antibody)
VH: EVQLVQSGAEVKKPGESLRISCKGSGYSFSTYWISWVRQMPGKGLEWMGKIYPGDSYTNYSPSFQGQVTISADKSISTAYLQWSSLKASDTAMYYCARGYGIFDYWGQGTLVTVSS
VL: SYELTQPPSVSVSPGQTASITCSGDNIGDQYAHWYQQKPGQSPVLVIYQDKNRPSGIPERFSGSNSGNTATLTISGTQAMDEADYYCATYTGFGSLAVFGGGTKLTVL
scFv: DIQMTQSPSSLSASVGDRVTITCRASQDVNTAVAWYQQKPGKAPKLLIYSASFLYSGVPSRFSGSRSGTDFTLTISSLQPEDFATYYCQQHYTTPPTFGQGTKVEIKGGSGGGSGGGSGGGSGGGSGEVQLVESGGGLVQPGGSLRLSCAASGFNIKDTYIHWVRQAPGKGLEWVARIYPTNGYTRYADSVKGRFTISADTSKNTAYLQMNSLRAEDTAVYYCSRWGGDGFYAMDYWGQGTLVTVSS
EC50 (pM), 4-1BB NF-kB-luciferase Jurkat reporter in co-culture with SKOV3 [8]: 2620 pM | Max activity (RLU), 4-1BB NF-kB-luciferase Jurkat reporter [8]: 27900 RLU

B6: v16605 (bispecific antibody)
VH: B5 VH
VL: B5 VL
scFv: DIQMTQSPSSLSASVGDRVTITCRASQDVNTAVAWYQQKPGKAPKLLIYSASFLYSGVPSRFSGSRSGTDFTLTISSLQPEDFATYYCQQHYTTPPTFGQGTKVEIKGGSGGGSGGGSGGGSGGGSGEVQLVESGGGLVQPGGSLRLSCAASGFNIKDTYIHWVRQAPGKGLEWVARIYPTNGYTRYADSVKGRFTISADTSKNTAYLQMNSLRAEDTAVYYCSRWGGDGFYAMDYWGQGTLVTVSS
EC50 (pM), 4-1BB NF-kB-luciferase Jurkat reporter in co-culture with SKOV3 [8]: 401 pM | Max activity (RLU), 4-1BB NF-kB-luciferase Jurkat reporter [8]: 92000 RLU

B7: v28725 (antibody, human IgG1, kappa, L234A L235A, V domains shown)
VH: EVQLVESGGGLIQPGGSLRLSCAVSGFSLTTYAISWVRQAPGKGLEWLGIIWPGGGTNYADSVKGRFTISKDNSKNTLYLQMNSLRAEDTAVYYCARGAGTWYFDVWGQGTLVTVSS
VL: DIQMTQSPSSLSASVGDRVTITCSASQGISNYLNWYQQKPGKAPKLLIYYTSSLHSGVPSRFSGSGSGTDYTLTISSLQPEDIATYYCQQYSKFPWTFGQGTKLEIKR
notes: also called humanized 1C8 H7L2
binding result [9]: no binding

B10: v28721 (antibody, human IgG1, kappa, L234A L235A, V domains shown)
VH: B7 VH with K71R
VL: B7 VL with Y71F, L73F, L104V
notes: also called humanized 1C8 H6L1
binding result [9]: no binding

B15: v20031 (antibody, human IgG1, kappa, L234A L235A, V domains shown)
VH: QVQLQQSGPELVKPGASVKISCKASGYVFSSYWMNWVKQRPGKGLEWIGRIYPGNGDTNYNGKFKDKATLTADKFSSTAYMQLSNLTSEDSAVYFCASYYELDYWGQGTSVTVSS
VL: DVVMTQTPLSLPVSLGDQASISCRSSQSLVHSNGNTYLHWYLQKPGQSPKLLIYKVSNRFFGVPDRFSGSGSGTDFTLKISRVEAEDLGVYFCSQTTYVPLTFGAGTKLELKR
notes: Mouse-human chimera; also called 4B11; printed as 4B1
binding result [6]: no binding | binding result [7]: no binding

B17: v28695 (antibody, human IgG1, kappa, L234A L235A, V domains shown)
VH: QVQLQESGPGLVKPSETLSLTCTVSGFSLISYGVHWIRQPPGKGLEWIGVIWSGGSTDYNPSLKSRVTISVDTSKNQFSLKLSSVTAADTAVYYCARNPLTATVMDYWGQGTLVTVSS
VL: DIQMTQSPSSLSASVGDRVTITCRASQNVGTNVAWFQQKPGKAPKSLIYSASYRDSGVPSRFSGSGSGTDFTLTISSLQPEDFATYYCQQYNSYPLTFGGGTKVEIKR
notes: also called humanized 5G8 H1L1
binding result [9]: no binding

Other lines, results leading:

Kd [1]: 49.6 nM | binding result [2]: binds | binding result [3]: binds | EC50 [4]: 0.337 nM | binding result [5]: no binding (tested: 2.5 µg of antibody) | binding result [6]: binds | binding result [7]: no binding
B1: v20023 (antibody, human IgG1, kappa, L234A L235A, V domains shown)
VH: EVQLVESGGGLVKPGGSRKLSCAASGFTFSEFGMHWVRQAPDKGLKWVAYISSGGSTIYYADTVKGRFTISRDNAKNTLFLQMTSLRSEDTAMYYCARDWVDYWGQGTTLTVSS
VL: NIVMTQSPKSMSMSVGERVTLSCKASENVGSYVSWYQQKPEKSPKLLIYGASNRYTGVPDRFTGSGSATDFTLTISSVQAEDLADYHCGQSYSYPLTFGAGTKLELKR
notes: Mouse-human chimera; also called 1G1; 1G1 mouse-human parental chimera

EC50 (pM), 4-1BB NF-kB-luciferase Jurkat reporter in co-culture with SKOV3 [8]: 30.1 pM | Max activity (RLU), 4-1BB NF-kB-luciferase Jurkat reporter [8]: 131000 RLU
B3: v16679 (bispecific antibody, human IgG1, lambda, L234A L235A)
heavy 1: not shown
heavy 2: B2 heavy 2
light: B2 light

binding result [6]: binds
B4: v12592 (antibody, human IgG1, lambda)
heavy 1: EVQLVQSGAEVKKPGESLRISCKGSGYSFSTYWISWVRQMPGKGLEWMGKIYPGDSYTNYSPSFQGQVTISADKSISTAYLQWSSLKASDTAMYYCARGYGIFDYWGQGTLVTVSSASTKGPSVFPLAPCSRSTSESTAALGCLVKDYFPEPVTVSWNSGALTSGVHTFPAVLQSSGLYSLSSVVTVPSSNFGTQTYTCNVDHKPSNTKVDKTVEPKSCDKTHTCPPCPAPELLGGPSVFLFPPKPKDTLMISRTPEVTCVVVDVSHEDPEVKFNWYVDGVEVHNAKTKPREEQYNSTYRVVSVLTVLHQDWLNGKEYKCKVSNKALPAPIEKTISKAKGQPREPQVYVYPPSRDELTKNQVSLTCLVKGFYPSDIAVEWESNGQPENNYKTTPPVLDSDGSFALVSKLTVDKSRWQQGNVFSCSVMHEALHNHYTQKSLSLSPGK
heavy 2: not shown
light: B2 light with V135Y, L182I
notes: Control monospecific bivalent anti-4-1BB antibody, Het Fc; clones 2871, 4667, 2872; also called MOR7480.1-IG1; MOR7480.1

binding result [9]: no binding
B8: v28722 (antibody, human IgG1, kappa, L234A L235A, V domains shown)
VH: B7 VH with K71R
VL: B7 VL
notes: also called humanized 1C8 H6L2

binding result [9]: no binding
B9: v28724 (antibody, human IgG1, kappa, L234A L235A, V domains shown)
VH: B7 VH
VL: B7 VL with Y71F, L73F, L104V
notes: also called humanized 1C8 H7L1

binding result [9]: no binding
B11: v28717 (antibody, human IgG1, kappa, L234A L235A, V domains shown)
VH: B7 VH with V24A, L48V, G49S, K71R
VL: B7 VL with Y71F, L73F, L104V
notes: FSA format, human IgG1/kappa; also called humanized 1C8 H5L1

binding result [9]: no binding
B12: v28719 (antibody, human IgG1, kappa, L234A L235A, V domains shown)
VH: B7 VH with V24A, L48V, G49S, K71R
VL: B7 VL
notes: also called humanized 1C8 H5L2

binding result [9]: no binding
B13: v28723 (antibody, human IgG1, kappa, L234A L235A, V domains shown)
VH: B7 VH with K71R
VL: B7 VL with A43T, P44V
notes: also called humanized 1C8 H6L3

binding result [9]: no binding
B14: v28720 (antibody, human IgG1, kappa, L234A L235A, V domains shown)
VH: B7 VH with V24A, L48V, G49S, K71R
VL: B7 VL with A43T, P44V
notes: also called humanized 1C8 H5L3

binding result [6]: no binding | binding result [7]: no binding
B16: v20020 (antibody, V domains shown)
VH: QVQLQQPGAELVKPGASVKLSCKASGYTFTSFWINWVKQRPGQGLEWIGNIYPDSSSTNYNEKFKNKATLTVDTSSSTAYMQLSSLTSDDSAVYFCARSLTFDYWGQGTTLTVSS
VL: DVVMTQTPLSLPVSLGDQASISCRSSQSIVHSNGNTYLEWYLQKPGQSPKLLIYKVSNRFSGVPDRFSARGSGTDFSLKISRVEAEDLGVYYCFQGSHVPYTFGGGTKLEIK
notes: Mouse-human chimera: mouse VH on human CH1-hinge-CH2-CH3 (IgG1), mouse VL on human kappa CL; also called 1B2

binding result [2]: no binding
B18: v20027 (antibody, human IgG1, kappa, L234A L235A, V domains shown)
VH: QVQLQQPGAELVRPGASVKLSCKASGYTFTSYWINWVKQRPGQGLEWIGNIYPSDNYTNYNQKFKDKATLTVDKSSSTAYMQLSSPTSEDSAVYYCTRGGGIYYENYFDYWGQGTTLTVSS
VL: QIVLTQSPAIMSASPGEKVTMTCSASSSVSYMHWYQQKSGTSPKRWVYDTSKLASGVPARFSGSGSGTSYSLTISSMEAEDVATYYCQQWSSNPPTFGGGTKLEIKR
notes: Mouse-human chimera; also called 3D7
